The target in this test is T1, hPD-L1-Fc (human, UniProt Q9NZQ7 19-238).
T1 construct: human programmed death-ligand 1 (PD-L1, CD274, B7-H1); also called programmed death-ligand 1; CD274; source: bought: tebu-bio/BPS Bioscience, #71104
Description: ELISA; competitive: hPD-L1-Fc coated on the plate; test antibodies in presence of 1 µg/ml PD-1-Biotin or 0.5 µg/ml CD80-Biotin; detected with streptavidin-POD. The conditions noted are these: both partners purified.

T1 sequence (Q9NZQ7 19-238): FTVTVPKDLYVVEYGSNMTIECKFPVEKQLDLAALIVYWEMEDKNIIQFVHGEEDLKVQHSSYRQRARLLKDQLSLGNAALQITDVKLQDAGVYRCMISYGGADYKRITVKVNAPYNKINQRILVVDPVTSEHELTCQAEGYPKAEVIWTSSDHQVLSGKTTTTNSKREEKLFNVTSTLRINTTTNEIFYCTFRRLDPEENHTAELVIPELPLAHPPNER

B1: CD80-Biotin (ligand, human, UniProt P33681 35-242, looked up)
chain: VIHVTKEVKEVATLSCGHNVSVEELAQTRIYWQKEKKMVLTMMSGDMNIWPEYKNRTIFDITNNLSIVILALRPSDEGTYECVVLKYEKDAFKREHLAEVTLSVKADFPTPSISDFEIPTSNIRRIICSTSGGFPEPHLSWLENGEELNAINTTVSQDPETELYAVSSKLDFNMTTNHSFMCLIKYGHLRVNQTFNWNTTKQEHFPDN
modifications: biotin
notes: The vendor's product may carry an Fc part; also called B7-1; soluble CD80; source: bought: tebu-bio/BPS Bioscience, #71114
In the case of B1, the binding result is given as “binds”.

The values are drawn from publication PMC6054930 (Frontiers in Immunology, 2018).
